Results taken from patent publication US20200199213A1 (Eli Lilly, published 2020).
Substitutions are numbered along the chain they refer to. Numbers in names are those of the source. One block for each binder: values may come before it.

Legend:
[1] = target: T1, human ANGPTL8 (human, UniProt Q6UXH0 22-198); assay: single point ELISA
T1 construct: Biotinylated in the ELISA assays; also called hANGPTL8; free ANGPTL8
T1 sequence: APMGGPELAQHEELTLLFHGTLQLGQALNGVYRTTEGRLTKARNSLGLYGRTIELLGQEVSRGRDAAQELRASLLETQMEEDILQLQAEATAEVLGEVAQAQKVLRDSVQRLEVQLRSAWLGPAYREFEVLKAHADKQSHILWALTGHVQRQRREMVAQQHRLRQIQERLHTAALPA
Procedure: (§1) Single Point ELISA (SPE) Assay: Ab binding selectivity to either the ANGPTL3/8 complex, free ANGPTL3 or free ANGPTL8 is initially verified using standard ELISA assays in a single point format. […] IgG secreted into supernatants after expression in CHO cells are then captured to the assay plate. Biotinylated antigen is added at a concentration of 25 nM to allow for Ab/antigen binding. Ab/antigen complexes are detected after adding alkaline phosphatase-conjugated neutravidin and alkaline phosphatase substrate, and subsequent measurement of the optical density at 560 nm. Positive binding is determined by a signal greater than 3 fold over the non-binding background signal.

[2] = target: T2, human ANGPTL3 (human, UniProt Q9Y5C1 17-460); assay: single point ELISA
T2 construct: Biotinylated in the ELISA assays; also called hANGPTL3; free ANGPTL3
T2 sequence: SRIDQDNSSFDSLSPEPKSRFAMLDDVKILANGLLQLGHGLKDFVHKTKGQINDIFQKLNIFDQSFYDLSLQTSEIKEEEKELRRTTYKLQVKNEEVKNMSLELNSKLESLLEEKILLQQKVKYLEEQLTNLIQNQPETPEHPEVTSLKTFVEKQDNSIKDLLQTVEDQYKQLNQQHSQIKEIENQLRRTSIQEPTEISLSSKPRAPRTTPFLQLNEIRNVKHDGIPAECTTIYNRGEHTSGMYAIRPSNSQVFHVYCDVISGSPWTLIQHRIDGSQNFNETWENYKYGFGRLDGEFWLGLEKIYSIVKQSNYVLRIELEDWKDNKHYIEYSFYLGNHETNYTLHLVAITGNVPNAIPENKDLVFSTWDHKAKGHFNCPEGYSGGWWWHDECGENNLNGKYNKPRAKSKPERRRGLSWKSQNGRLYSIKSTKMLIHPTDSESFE
Procedure: as §1

[3] = target: T1, human ANGPTL8; assay: ELISA; Ab captured by anti-human Fc; biotinylated antigen at 1.23 nM
Procedure: (§2) ELISA Assay: Ab binding selectivity to either the ANGPTL3/8 complex, free ANGPTL3 or free ANGPTL8 is verified using standard ELISA assays. […] Ab from CHO supernatants after expression in CHO cells is then captured to the assay plate and results is an Ab concentration of 2 μg/ml. Biotinylated antigen (ANGPTL3, ANGPTL8 or ANGPTL3/8 complex) is added at varying concentrations by serial dilution to allow for Ab/antigen binding. Ab/antigen complexes are detected after the addition of alkaline phosphatase-conjugated neutravidin, and alkaline phosphatase substrate, and subsequent measurement of the optical density at 560 nm.

[4] = target: T3, human ANGPTL3/8 complex (human, UniProt Q9Y5C1 17-460; Q6UXH0 22-198, limits assumed); assay: as above
T3 construct: also called hANGPTL3/8 complex; ANGTPL3/8 complex
T3 sequence 1: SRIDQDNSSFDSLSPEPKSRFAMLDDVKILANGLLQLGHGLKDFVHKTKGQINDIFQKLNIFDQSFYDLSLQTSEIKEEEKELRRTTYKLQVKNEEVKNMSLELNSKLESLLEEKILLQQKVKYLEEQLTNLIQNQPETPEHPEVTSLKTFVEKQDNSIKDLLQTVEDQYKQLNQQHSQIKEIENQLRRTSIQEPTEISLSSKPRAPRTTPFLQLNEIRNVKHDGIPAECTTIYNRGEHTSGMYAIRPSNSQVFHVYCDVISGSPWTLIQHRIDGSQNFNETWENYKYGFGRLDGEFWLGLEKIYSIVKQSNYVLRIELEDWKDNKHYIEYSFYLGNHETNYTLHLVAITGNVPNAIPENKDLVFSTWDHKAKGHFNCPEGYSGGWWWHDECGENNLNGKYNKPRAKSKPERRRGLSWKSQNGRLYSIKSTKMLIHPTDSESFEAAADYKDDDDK
T3 sequence 2: T1 sequence
Procedure: as §2

[5] = target: T1, human ANGPTL8; assay: ELISA; Ab captured by anti-human Fc; biotinylated antigen at 3.70 nM
Procedure: as §2

[6] = target: T2, human ANGPTL3; assay: as above
Procedure: as §2

[7] = target: T3, human ANGPTL3/8 complex; assay: as above
Procedure: as §2

[8] = target: T1, human ANGPTL8; assay: ELISA, antigen titration
Procedure: as §2

[9] = target: T2, human ANGPTL3; assay: ELISA, antigen titration
Procedure: as §2

[10] = target: T3, human ANGPTL3/8 complex; assay: SPR, Biacore T200; Ab captured on Human Fab Binder, complex injected; pH 7.4, 25 C

binding result [1]: no binding
binding result [2]: no binding
OD at 560 nm [3]: 0.043 OD 560 nm
OD at 560 nm [4]: 0.51 OD 560 nm
OD at 560 nm [5]: 0.051 OD 560 nm
OD at 560 nm [6]: 0.046 OD 560 nm
OD at 560 nm [7]: 1.04 OD 560 nm
B1: anti-ANGPTL3/8 complex Ab having a LC of SEQ ID NO:5 and a HC of SEQ ID NO:6 (antibody, human IgG4 S228P, kappa, F234A L235A, V domains shown)
VH: QVTLKESGPTLVKPTQTLTLTCTFSGFSLSISGVGVGWIRQPPGKALEWLALIYRNDDKRYSPSLKSRLTITKDTSKNQVVLTLTNMDPVDTATYYCARTYSSGWYGNWFDPWGQGTLVTVSS
VL: DIVMTQTPLSLPVTPGEPASISCRSSQSLLDSDDGNTYLDWYLQKPGQSPQLLIYMLSYRASGVPDRFSGSGSGTDFTLKISRVEAEDVGIYYCMQRIEFPLTFGGGTKVEIKR
notes: In the ELISA assays tested as IgG from CHO supernatants; also called the Ab

OD at 560 nm [3]: 0.058 OD 560 nm
OD at 560 nm [4]: 0.575 OD 560 nm
binding result [8]: no binding (tested: 100 nM antigen)
binding result [9]: no binding (tested: 100 nM antigen)
OD at 560 nm [5]: 0.056 OD 560 nm
OD at 560 nm [6]: 0.06 OD 560 nm
OD at 560 nm [7]: 1.13 OD 560 nm
B2: Ab with LC variant having a D31S mutation (SEQ ID NO:21) and a HC of SEQ ID NO:6 (antibody, human IgG4 S228P, kappa, F234A L235A, V domains shown)
VH: B1 VH
VL: B1 VL with D31S
notes: also called D31S Variant Ab; D31S Ab

binding result [1]: no binding
binding result [2]: no binding
OD at 560 nm [3]: 0.058 OD 560 nm
OD at 560 nm [4]: 0.575 OD 560 nm
OD at 560 nm [5]: 0.056 OD 560 nm
OD at 560 nm [6]: 0.06 OD 560 nm
OD at 560 nm [7]: 1.13 OD 560 nm
B3: Ab with LC variant having a E99Q mutation (SEQ ID NO:25) and a HC of SEQ ID NO:6 (antibody, human IgG4 S228P, kappa, F234A L235A, V domains shown)
VH: B1 VH
VL: B1 VL with E99Q
notes: also called E99Q Variant Ab; E99Q Ab

OD at 560 nm [3]: 0.049 OD 560 nm
OD at 560 nm [4]: 0.491 OD 560 nm
Kd [10]: 0.201 nM
koff [10]: 9.19e-05 s⁻¹
kon [10]: 457000 M⁻¹ s⁻¹
binding result [8]: no binding (tested: 100 nM antigen)
binding result [9]: no binding (tested: 100 nM antigen)
OD at 560 nm [5]: 0.048 OD 560 nm
OD at 560 nm [6]: 0.056 OD 560 nm
OD at 560 nm [7]: 1.04 OD 560 nm
B4: Ab with LC variant having a D33A mutation (SEQ ID NO:22) and a HC of SEQ ID NO:6 (antibody, human IgG4 S228P, kappa, F234A L235A, V domains shown)
VH: B1 VH
VL: B1 VL with D33A
notes: also called D33A Variant Ab; D33A Ab
